Source: patent US20220356230A1 (published 2022)
Numbering of substitutions follows the chain as printed.

B1: mAb10913 (antibody, V domains shown)
VH: EVQLVESGGGLVQPGGSLRLSCAASGFTFRNYEMNWVRQAPGKGLEWVSYITSSGSTMYYADSVKGRFTISRDNAKNSLYLQMNSLRAEDTAVYYCARDGFYYYYAMDVWGQGTTVTVSS
VL: QSVLTQPPSVSAAPGQKVTISCSGSSSNIGNNYVSWYQQLPGTAPKLLIYDNNKRPSGIPDRFSGSKSGTSATLGITGLQTGDEADYYCGTWDSSLSVGRVFGTGTKVTVLG
B2: mAb10937 (antibody, V domains shown)
VH: QITLKESGPTLVKPTQTLTLTCTFSGFSLSTNVVGVGWIRQPPGKALEWLALIYWNDDKRYSPSLKSRLTITKDTSKNQVVLTMTNMDPVDTATYYCAHGPTGDYFDYWGQGTLVTVSS
VL: not shown
B3: mAb10982 (antibody, V domains shown)
VH: EVQLVESGGGLVQPGGSLRLSCAASGLTVSSNYMSWVRQAPGKGLEWVSVIYSGGTTYYADSVKGRFTISRHNSKNTLSLQMNSLRAEDTAVYYCARGEGANYYGMDVWGQGTTVTVSS
VL: QSVLTQPPSVSGAPGQRVTISCTGSSSNIGTGYDVHWYQQLPGTAPKLLIYGNSNRPSGVPDRFSGSKSGTSASLAITGLQAEDEADYYCQSYDSSLSGYVVFGGGTKLTVLG
B4: mAb10985 (antibody, V domains shown)
VH: EVQLVESGGGLVQPGRSLRLSCAASGFTFDDYAMHWVRQAPGKGLEWVSGISWNRGSIGYADSVKGRFTISRDNAKNSLYLQMSSLRAEDTALYYCAKDGERWDSVVVPSARNGMDVWGQGTTVTVSS
VL: B3 VL with T31A, Y100S, V101Y, G105T, L109V
B5: mAb10986 (antibody, V domains shown)
VH: EVQLVESGGGLVQPGGSLRLSCAASEFTVSSNYMSWVRQAPGKGLEWVSVIYSGGSTFYADSVKGRFTISRDNSKNTLYLQMNSLRAEDTAVYYCARALPYGDLHFDYWGQGTLVTVSS
VL: B3 VL with S54T, G99D, Y100S, V101Y, G105T, L109V
B6: mAb10964 (antibody, V domains shown)
VH: QVQLQESGPGLVKPSETLSLTCTVSGGSINNYYWIWIRQPPGKGLEWIGYIYHSGSTNYNPSLKSRVTISVDTSKNQFSLKVSSVTAADTAVYYCANMVRGVYEDDYWGQGTLVTVSS
VL: DIQMTQSPSSLSASVGDRVTITCRASQSISNYLNWYQQKPGKAPKLLIFAASSLRSGVPSRFSGSGSGTDFTLTISSLHPEDFATYYCQQNYNTPLTFGPGTKVDIKR
B7: mAb10932 (antibody, V domains shown)
VH: EVQLVESGGGLVQSGGSLRLSCAASGLTVSSNYMSWVRQAPGKGLEWVSVIYSGGSTFYSDSVKGRFTISRHNSKNTLYLQMNSLRAEDTAVYYCARARGDAFDIWGQGTMVTVSS
VL: not shown
B8: mAb10921 (antibody, V domains shown)
VH: EVQLVESGGGLVQPGGSLRLSCAASGITVSSNYMSWVRQAPGKGLEWVSVIYSGGSTFYADSVKGRFTISRHNSKNTLYLQMNSLRAEDTAVYYCARERNFDAFDIWGQGTMVTVSS
VL: DIQMTQSPSSVSASVGDRVTITCRASQGISSWLAWYQQKPGKAPKLLIYAASSLQSGVPSRFSGSGSGTDFTLTISSLQPEDFATYYCQQANSFPLFTFGPGTKVDIKR
B9: mAb10957 (antibody, V domains shown)
VH: EVQLVESGGGLVQPGGSLRLSCAASGVTVSSNYMSWVRQAPGKGLEWVSVIYSGGSTFYADSVKGRFTISRDNSKNTLFLQMNSLRIEDTAVYYCARDLGPYGMDVWGQGTTVTVSS
VL: B8 VL with M4L, S10F, V11L, W32Y, S53T, D70Q, T72I, A91L, F94Y, L96G
B10: mAb10930 (antibody, V domains shown)
VH: EVQLVESGGGLVQPGRSLRLSCAASGFTFDDYAMYWVRQAPGKGLEWVSGISWNSGSIGYADSVKGRFTISRDNAKNSLYLQMNSLRAADTALYYCAKDKDWNSRGYYYYGMDVWGQGTTVTVSS
VL: not shown
B11: mAb10939 (antibody, V domains shown)
VH: EVQLVESGGGLVQPGGSLRLSCAASGLTVSSNYMNWVRQVPGKGLEWVSVIYSGGSKFYVDSVKGRFTISRHNSKNTLYLQMNSLRPEDTAVYYCTRDAQYYGMDVWGQGTTVTVSS
VL: DIQMTQSPSSLSASVGDRVTITCRASQSISTYLHWYQQKPGEAPKLLIYAASSLQSGVPSRFSGSGSGTDFTLTISSLQPEDFATYYCQQSYSTPPEIFGQGTKLEIKR
B12: mAb10956 (antibody, V domains shown)
VH: B9 VH with V27L, F79Y, I87A, G100I, P101K
VL: not shown
B13: mAb10989 (antibody, V domains shown)
VH: QVQLVQSGAEVKKPGASVKVSCKASGYIFTGYYMHWVRQAPGQGLEWMGWINPNSGGANYAQKFQGRVTLTRDTSITTVYMELSRLRFDDTAVYYCARGSRYDWNQNNWFDPWGQGTLVTVSS
VL: QSALTQPASVSGSPGQSITISCTGTSSDVGTYNYVSWYQQHPGKAPKLMIFDVSNRPSGVSDRFSGSKSGNTASLTISGLQAEDEADYYCSSFTTSSTVVFGGGTKLTVLG
B14: mAb10934 (antibody, V domains shown)
VH: not shown
VL: DIQMTQSPSSLSASVGDRVTITCQASQDIWNYINWYQQKPGKAPKLLIYDASNLKTGVPSRFSGSGSGTDFTFTISSLQPEDIATYYCQQHDDLPPTFGQGTKVEIKR
B15: mAb10935 (antibody, V domains shown)
VH: EVQLVESGGGLVQPGGSLRLSCAASGFTVSSNYMSWVRQAPGKGLEWVSLIYSGGSTYYADSVKGRFTISRHNSKNTLYLQMNSLRSEDTAVYYCARVPLGDYYYGMDVWGQGTTVTVSS
VL: B14 VL with W30N, N31K, I33L, K55E, H91S, D93N, P96L, Q100G
B16: mAb10954 (antibody, V domains shown)
VH: EVQLVESGGGLVQPGGSLRLSCAASGITVSSNYMSWVRQAPGKGLEWVSLIYSGGSTYYADSVKGRFTISRDNSKNTLYLQMNSLRVEDTAVYYCARDHGMAAAGYNYWGQGTLVTVSS
VL: B14 VL with W30N, N31K, I33L, K55E, S76N, I83F, Y87F, H91Y, D93N, T97A
B17: mAb10967 (antibody, V domains shown)
VH: EVQLVESGGGLVQPGGSLRLSCAASGFTVSSNYMSWVRQAPGKGLEWVSVIYPGGSTFYADSVKGRFTISRDNSKNTLYLQMNSLRAEDTAVYYCARDQRDFAWGQGTLVTVSS
VL: B14 VL with W30S, I33L, K55E, S77G, H91Y, D93N, K103R, V104L
B18: mAb10971 (antibody, V domains shown)
VH: B9 VH with V12I, A60S, T68S, F79Y, I87A, G100Y, P101Y
VL: DIQLTQSPSFLSASVGDRVTITCRASQGISTYLAWYQQKPGKAPKLLIYAASTLQSGVPSRFSGSGSGTEFTLTISSLQPEDFATYYCQQLDSYPGLTFGGGTKVEIKR
B19: mAb10966 (antibody, V domains shown)
VH: EVQLVESGGGLVQPGGSLRLSCAASGLTVSSNYMSWVRQAPGKGLEWVSVIYSGGSTFYADSVKGRFTISRDNSKNTLYLQMNSLRPEDTAVYYCAREGRIAATGYGMDVWGQGTTVTVSS
VL: not shown

Key:
[1] = target: SARS-CoV-2 Spike Protein (S1 Subunit, Fc Tag) (Sino 40591-V02H) (SARS-CoV-2, UniProt P0DTC2 16-685); test: Luminex bead assay, antibody supernatant, antigen on microspheres
[2] = target: SARS-CoV-2 Spike Protein (S1 Subunit, His Tag) (Sino 40591-V08H) (SARS-CoV-2, UniProt P0DTC2 16-685); test: as above
[3] = target: SARS-CoV-2 Spike Protein (S1 Subunit, Fc Tag) (Sino 40591-V02H) (SARS-CoV-2, UniProt P0DTC2 16-685); test: Luminex bead assay, supernatant on antigen microspheres
[4] = target: SARS-CoV-2 Spike Protein (S1 Subunit, His Tag) (Sino 40591-V08H) (SARS-CoV-2, UniProt P0DTC2 16-685); test: as above

Binder | Binding signal (MFI) [1] | Binding signal (MFI) [2] | Binding signal (MFI) [3] | Binding signal (MFI) [4]
B1 | 18900 MFI | 24900 MFI |  | 
B2 | 19600 MFI | 26400 MFI |  | 
B3 | 10800 MFI | 14000 MFI |  | 
B4 |  |  | 16200 MFI | 
B5 |  |  | 16000 MFI | 19100 MFI
B6 |  |  | 18600 MFI | 24200 MFI
B7 | 17600 MFI | 22100 MFI |  | 
B8 | 8960 MFI | 12200 MFI |  | 
B9 |  |  | 8450 MFI | 12000 MFI
B10 | 16500 MFI | 21200 MFI |  | 
B11 | 18200 MFI | 23900 MFI |  | 
B12 |  |  | 15000 MFI | 20000 MFI
B13 |  |  | 12300 MFI | 14200 MFI
B14 | 20600 MFI | 27500 MFI |  | 
B15 | 20000 MFI | 25600 MFI |  | 
B16 |  |  | 16600 MFI | 21300 MFI
B17 |  |  | 15800 MFI | 21900 MFI
B18 |  |  | 17000 MFI | 21600 MFI
B19 |  |  | 16400 MFI | 23300 MFI
